Measured values published in patent US6759239.

Molecular target: CD40 on APCs (CD2-depleted human PBMC) (human) (UniProt P25942)
Assay: cell-based or functional assay

Sequence of UniProt P25942 (P25942 21-277): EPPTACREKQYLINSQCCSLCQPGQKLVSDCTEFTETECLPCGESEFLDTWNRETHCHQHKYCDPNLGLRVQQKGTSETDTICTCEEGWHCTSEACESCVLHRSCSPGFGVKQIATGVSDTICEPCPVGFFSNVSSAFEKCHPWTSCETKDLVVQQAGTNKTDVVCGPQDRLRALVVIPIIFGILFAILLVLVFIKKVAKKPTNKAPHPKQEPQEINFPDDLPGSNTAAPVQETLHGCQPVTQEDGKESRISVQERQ

% Positive APCs for CD40 after 48 h with CD40 mAb on CD32+ L cells plus IL-4 (APC alone: 99(231))	% Positive APCs for CD54 after 48 h with CD40 mAb on CD32+ L cells plus IL-4 (APC alone: 65(283))	% Positive APCs for CD80 after 48 h with CD40 mAb on CD32+ L cells plus IL-4 (APC alone: 16(78))	% Positive APCs for CD86 after 48 h with CD40 mAb on CD32+ L cells plus IL-4 (APC alone: 30(310))	MFI of CD40 on APCs after 48 h with CD40 mAb on CD32+ L cells plus IL-4 (APC alone: 99(231)) (scale: MFI)	MFI of CD54 on APCs after 48 h with CD40 mAb on CD32+ L cells plus IL-4 (APC alone: 65(283)) (scale: MFI)	MFI of CD58 on APCs after 48 h with CD40 mAb on CD32+ L cells plus IL-4 (APC alone: 40(315)) (scale: MFI)	MFI of CD80 on APCs after 48 h with CD40 mAb on CD32+ L cells plus IL-4 (APC alone: 16(78)) (scale: MFI)	MFI of CD86 on APCs after 48 h with CD40 mAb on CD32+ L cells plus IL-4 (APC alone: 30(310)) (scale: MFI)	% Positive APCs for CD40 after 24 h with D1.1 cells (APC alone: 99(203))	% Positive APCs for CD54 after 24 h with D1.1 cells (APC alone: 60(350))	% Positive APCs for CD58 after 24 h with D1.1 cells (APC alone: 42(374))	% Positive APCs for CD80 after 24 h with D1.1 cells (APC alone: 17(90))	% Positive APCs for CD86 after 24 h with D1.1 cells (APC alone: 35(318))	MFI of CD40 on APCs after 24 h with D1.1 cells (APC alone: 99(203)) (scale: MFI)	MFI of CD54 on APCs after 24 h with D1.1 cells (APC alone: 60(350)) (scale: MFI)	MFI of CD58 on APCs after 24 h with D1.1 cells (APC alone: 42(374)) (scale: MFI)	MFI of CD80 on APCs after 24 h with D1.1 cells (APC alone: 17(90)) (scale: MFI)	MFI of CD86 on APCs after 24 h with D1.1 cells (APC alone: 35(318)) (scale: MFI)	Substance
99%	97%	31%	63%	430	443	458	109	464	–	–	–	–	–	–	–	–	–	–	mAb CD40 G28-5 (antibody)
–	–	–	–	–	–	–	–	–	99%	85%	70%	41%	49%	312	358	380	141	327	CD40L constitutively expressed on the D1.1 Jurkat T cell line (from UniProt P29965 1-261) (ligand)
